From US20200166512A1 (CENTRE NATIONAL DE LA RECHERCHE SCIENTIFIQUE, published 2020)
Blank lines part the entries; values can stand above or below the binder they belong to. Where no end group is shown, it is not given here.

Target: T1, antigenic peptide REEHIEGGHSNTDRPSR (human immunogenic peptide, residues 365-381 of IL4I1) coupled to BSA (human, also: coupled through Ahx spacer and Cys to BSA carrier, end not given here)
T1 peptide: REEHIEGGHSNTDRPSR
Assay: ELISA screen against the antigenic peptide coupled to BSA

binding result: binds
B1: anti-IL4I1 antibody A-3 IgG/λ (rabbit monoclonal, clone A-3) (antibody, V domains shown)
VH: QSLEESGGDLVKPEGSLTLTCTASGFSLSAGYFMCWVRQAPGKGLEWIGSIFSGSSGSTYYASWAKGRFTISKTSSTTVTLQMTSLTAADTAIYFCARGGVVDGRVAYDNSFDHWGPGTLVTVSS
VL: ELVLTQSPSVSAALGASAKLTCTLSSAHSTYTIDWYQQQPGESPRYLMQLKSDGTYTKGTGVPDRFSGSSSGADRYLIIPSVQADDEAGYYCGANYSGGYVFGGGTQLTVTR
notes: Rabbit IgG/lambda from a hybridoma; It was used as hybridoma supernatant (clone A) or as purified IgG (subclone A-3); also called IgG A-3; AbA-3

binding result: binds
B2: anti-IL4I1 antibody D-5 IgG/λ (rabbit monoclonal, clone D-5, hybridoma CNCM I-5355) (antibody, V domains shown)
VH: QQQLVESGGDLVKPEGSLTLTCTASGFSLSAGYFICWIRQAPGKGLEWIGSVFSGSSGTTYYASWAKGRFTISKTSSTTVTLQMTSLTAADTAIYFCARGGVLGGRVAYDNSFDHWGPGTLVTVSS
VL: ELVLTQSPSVSAALGASAKLTCTLSSAHSTYTIEWYQQQPGESPRYLMQLKSDGSYTKGTGVPDRFSGSSSGADRYLIIFSVQADDEADYYCGANYSSGYVFGGGTQLTVT
notes: Rabbit IgG/lambda from a hybridoma; It was used as hybridoma supernatant (clone D) or as purified IgG (subclone D-5); also called IgG D-5; AbD-5
